Data from PMC3770614.

Biological target: nucleosomes decorated with both H3KC4me3 and H3K9ac or H3K14ac
Experiment: pull-down; 130 pmol recombinant nucleosome (biotinylated 601 Widom DNA, weak TATA) on magnetic streptavidin beads, 500 µg HeLa nuclear extract, 2–3 hours at 4°C; 20 mM HEPES pH 7.5, 150 mM NaCl, 0.2 mM EDTA, 20% glycerol, 0.1% NP-40, 1 mM DTT; no competitor DNA; immunoblot of eluted proteins

fold binding compared to H3KC4me3 alone: 1.2 to 1.4 fold
Substance: TFIID complex (from UniProt P21675 1-1893; Q6P1X5 1-1199; Q5VWG9 1-929; O00268 1-1085; Q15542 1-800; P49848 1-677; Q15545 1-349; Q7Z7C8 1-310; Q16594 1-264; Q12962 1-218; Q15544 1-211; Q16514 1-161; Q15543 1-124; P20226 1-339)
